{
  "source": "patent US20090215095A1",
  "about": "(INTRINSIC LIFESCIENCES, published 2009)",
  "key": {"[1]": {"target": "Protein A affinity purified KST4", "assay": "competitive inhibition ELISA, Protein A purified KST4 at 1:5000 (FIG. 7B)", "description": "We collected serum from each of three immunized rabbits (KST3, KST4, KST5). KST3 and 4 are sera from rabbits immunized with hepcidin-KLH conjugates produced using EDC chemistry, while KST5 is sera from conjugates produced using DSS chemistry (FIG. 7A). […] Additional validation of the anti-mature, folded, bioactive hepcidin antibodies described above was performed and their utility in competitive ELISA examined in the presence of varying dilutions of bass serum (FIG. 8 A-C). Note increasing inhibition of signal with increasing amounts of synthetic hepcidin added to tracer. Note the effects of serum on competitive ELISA standard curve (FIG. 8 C) generated with data from (FIG. 8 B) between 10-100 ngs of mature, folded, bioactive hepcidin. […] FIG. 9 is an example of a routine standard curve where hepcidin competitor concentrations are expressed as ng/ml, rather than total ngs added to the competition."}, "[2]": {"target": "affinity purified rabbit anti-mature, folded, bioactive hepcidin antibody (KST4)", "assay": "competition ELISA with synthetic hepcidin as competitor"}, "[3]": {"target": "polyclonal anti-hepcidin rabbit sera (unpurified serum, source rabbit not named)", "assay": "competition ELISA with synthetic hepcidin as competitor"}, "[4]": {"target": "Protein A affinity purified antibodies (anti-hepcidin rabbit sera, source serum not named)", "assay": "competition ELISA with synthetic hepcidin as competitor"}},
  "note": "Ends that are not written are not given here.",
  "data": [
    {"binder": "GCRFCCNCCPNMSGCGVCCRF-OH (disulfide (positions not given here), also called synthetic hepcidin)", "note": "[synthetic, mature, refolded, bioactive bass hepcidin]", "values": [
      {"measurement": "IC50", "setting": "[1]", "value": "~2.5", "unit": "ng/mL"},
      {"measurement": "percent of signal competed away", "setting": "[2]", "value": "> 90", "unit": "%"},
      {"measurement": "percent of signal competed away", "setting": "[3]", "value": 65, "unit": "%"},
      {"measurement": "percent of signal competed away", "setting": "[4]", "value": "~80", "unit": "%"}
    ]}
  ]
}
